Reference: patent US20110294137A1 (MEDICAL RESEARCH COUNCIL, published 2011)

Experiments:
Rv1827, P9WJA9 = biological target: T1, Rv1827, P9WJA9
T1 chain: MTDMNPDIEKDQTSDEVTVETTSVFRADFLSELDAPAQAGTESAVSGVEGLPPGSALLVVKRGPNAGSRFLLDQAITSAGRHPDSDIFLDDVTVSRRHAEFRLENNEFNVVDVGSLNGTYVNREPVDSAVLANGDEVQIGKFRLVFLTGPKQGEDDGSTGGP

[1] = biological target: the molecule itself; test: right angle light scattering at 340 nm, self-polymerisation, 4 mM ATP

B1: PknB kinase domain (PknB 1-279) (protein)
chain: MTTPSHLSDRYELGEILGFGGMSEVHLARDLRLHRDVAVKVLRADLARDPSFYLRFRREAQNAAALNHPAIVAVYDTGEAETPAGPLPYIVMEYVDGVTLRDIVHTEGPMTPKRAIEVIADACQALNFSHQNGIIHRDVKPANIMISATNAVKVMDFGIARAIADSGNSVTQTAAVIGTAQYLSPEQARGDSVDARSDVYSLGCVLYEVLTGEPPFTGDSPVSVAYQHVREDPIPPSARHEGLSADLDAVVLKALAKNPENRYQTAAEMRADLVRVHNG
With B1 the KM (Rv1827, P9WJA9) was “KM, 20 µM”, the “KM value (Michaelis-Menten, initial rate against Rv1827 concentration)” value (Rv1827, P9WJA9) was “a KM value of 22 µM” and the kcat (Rv1827, P9WJA9) was “kcat 4.7 min^-1”. The “kcat (300 µM Rv1827, ATP varied)” value (Rv1827, P9WJA9) was “kcat, 4.9 min^-1”, the maximal rate (Rv1827, P9WJA9) was “a maximal rate of 1.2 µM min^-1” and the specific activity (Rv1827, P9WJA9) was “the specific activity of the PknB kinase domain was calculated for 40 µM ATP as 5.9 s^-1”.

B2: wild-type ParM (other)
chain: MLVFIDDGSTNIKLQWQESDGTIKQHISPNSFKREWAVSFGDKKVFNYTLNGEQYSFDPISPDAVVTTNIAWQYSDVNVVAVHHALLTSGLPVSEVDIVCTLPLTEYYDRNNQPNTENIERKKANFRKKITLNGGDTFTIKDVKVMPESIPAGYEVLQELDELDSLLIIDLGGTTLDISQVMGKLSGISKIYGDSSLGVSLVTSAVKDALSLARTKGSSYLADDIIIHRKDNNYLKQRINDENKISIVTEAMNEALRKLEQRVLNTLNEFSGYTHVMVIGGGAELICDAVKKHTQIRDERFFKTNNSQYDLVNGMYLIGN
notes: Unlabelled, without His6 tag (plasmid pJSC1); also called ParM wild-type
B2 was tested, and the “critical concentration (filament formation, in presence of ATP)” value [1] was 2.5 µM.
